Experimental data from FireProtDB (doi:10.1016/j.jmb.2005.05.003).

Conditions: Equus caballus, Thermal, CD, Potassium citrate 10 mM, KCl 0.1 mM, reversible: yes, whole UniProt chain shown

B1: Beta-lactoglobulin-1 wild type, P02758 (protein)
chain: MKCLLLALGLALMCGIQATNIPQTMQDLDLQEVAGKWHSVAMAASDISLLDSESAPLRVYIEKLRPTPEDNLEIILREGENKGCAEKKIFAEKTESPAEFKINYLDEDTVFALDTDYKNYLFLCMKNAATPGQSLVCQYLARTQMVDEEIMEKFRRALQPLPGRVQIVPDLTRMAERCRI
In the case of B1, the Tm (pH 3.65) is reported as 47.5 °C, the “unfolding enthalpy (van 't Hoff)” value (pH 3.65) is reported as 37.8 kcal/mol and the Tm (pH 3.71) is reported as 49.4 °C. For the same protein, the “unfolding enthalpy (van 't Hoff)” value (pH 3.71) was 44.2 kcal/mol, the Tm (pH 4) was 58.3 °C and the “unfolding enthalpy (van 't Hoff)” value (pH 4) was 51.5 kcal/mol. The Tm (pH 4.2) was 59.7 °C, the “unfolding enthalpy (van 't Hoff)” value (pH 4.2) was 57.1 kcal/mol and the Tm (pH 4.22) was 61.4 °C. The “unfolding enthalpy (van 't Hoff)” value (pH 4.22) was 57.8 kcal/mol, the Tm (pH 4.23) was 57.3 °C and the “unfolding enthalpy (van 't Hoff)” value (pH 4.23) was 52.7 kcal/mol.
